Experimental data: patent publication US6645504B1, “Bystander suppression of type I diabetes by oral administration of glucagon” (AutoImmune Inc., priority 1987, dated 2003)

Columns and labels:
[1] = test system: Cells, cytokines and activation markers in rat brain; assay: Immunohistology of cells, cytokines and activation markers in sections of rat brain; format: in vivo, Lewis rats; design: key to IL-4 / TGF-β / PGE: −: absence of labelling; +/−: <10 cells/section or trace labelling; +: few small foci; 2+: multiple foci; 3+: multiple large perivascular collections and diffuse submeningeal staining; conditions: brain sections at day 14 (peak of disease), n = 3/group
Experimental: The effect of oral administration of MBP in rats induced for EAE was analyzed in terms of the cells and factors present in the brains of fed and control rats. Lewis rats were fed MBP five times then immunized with MBP/CFA and their brains were examined immunohistologically at day 14 (peak of disease) and compared to brains from immunized control-fed animals harvested at the same time, and to brains of naive animals. Cryostat sections of cortex and cerebellum were fixed in paraformaldehyde-lysine-periodate for determination of leukocytes and activation antigens, or in acetone for the labelling of cytokines, and stained by a peroxidase-antiperoxidase method (Hancock, W. W., et al., J. Immunol. 138:164, 1987). Results of cytokine and endothelial labelling in 20 consecutive fields were judged as (−) absence of labelling, (+/−) <10 cells/section or trace labelling, (+) few small foci, (2+) multiple foci, and (3+) multiple large perivascular collections and diffuse submeningeal staining.

DTH responses to MBP = assay: Delayed type hypersensitivity (DTH) testing, Example 1; format: in vivo, Lewis rats; conditions: orally tolerized animals injected 5 times with 50 μl control serum; 48 hours after MBP challenge
Experimental: Delayed Type Hypersensitivity (DTH) Testing. DTH was tested by injecting 25 μg of MBP in PBS subcutaneously in the ear. Thickness was measured before and 48 hours after challenge, by a blinded observer, using micrometer calipers (Mitutoyo, Japan). Change in ear thickness pre- and post-challenge was recorded for each animal and the result expressed as the mean for each experimental group ±SEM.
Delayed-type hypersensitivity (DTH) responses correlate with the clinical course of EAE and serve as a measure of in vivo cellular immunity to MBP (Brod, S. A. et al. Ann. Neurol. 29:615-622, 1991; Khoury, S. J. et al. Cell. Immunol. 131:302-310, 1990). DTH responses were tested in the same groups described in FIG. 4 by injecting 25 μg of MBP in PBS subcutaneously in the ear. Thickness was measured before and 48 hours after challenge. The change in ear thickness pre- and post-challenge was recorded for each animal and the results expressed as the mean for each experimental group ± SEM.

EAE = EAE after MBP/CFA immunization with oral tolerization and in vivo anti-TGF-β antiserum; design: species or system Lewis rats; conditions: orally tolerized animals treated 5 times with 50 μl control serum; score 0-5

B1: MBP: Guinea pig myelin basic protein purified from brain tissue (protein, UniProt P25188 1-167, looked up)
Myelin basic protein: ASQKRPSQRHGSKYLATASTMDHARHGFLPRHRDTGILDSIGRFFGSDRAAPKRGSGKDSHHAARTTHYGSLPQKSQRSQDENPVVHFFKNIVTPRTPPPSQGKGRGLSLSRFSWGAEGQKPGFGYGGRADYKSKGFKGAHDAQGTLSKIFKLGGRDSRSGSPMARR
IL-2R(p55), PCNA [1]: +/− (<10 cells/section or trace labelling) | IL-4 [1]: − | PGE [1]: − | TGF-β [1]: 2+ | DTH response (change in ear thickness) (DTH responses to MBP): 0.5±0.3 | maximal disease severity (EAE): 1.0±0.2
